Data: the supplement of paper PMC10126150
± gives the standard deviation of the averaged measurements.

Tested on: ATP
Test: switch fluorescence ratio, 500 uM ATP over buffer (Cy3 cluster intensity, sum of 5 cycles each) (fold (ratio)); higher = stronger signal-on switching upon ATP binding; sequences stand for … in TCGTCGGCAGCGTCAGATGTGTATAAGAGACAGTTTTTTTTTTTTTTTTTTTTTTTTT…TC
Details: aptamer strand: ATP DNA aptamer (quencher-CACCTGGGGGAGTATTGCGGAGGAAGG + anchor), 100 nM annealed; ATP concentration: 500 uM
How it was run: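 Per cluster, summed Cy3 intensity from the target cycles was divided by that from the buffer cycles to give the fluorescence ratio, then averaged per switch-domain sequence. Clusters outside 100-1000 RFU were excluded. The Cy3-labelled switching-strand clusters, on a modified Illumina MiSeq flow-cell, were annealed to 100 nM quencher-labelled ATP aptamer and imaged in selection buffer, then after 15 min with 500 uM ATP at 22 °C, for five cycles with NaOH stripping and re-annealing between them.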
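Also: ATP exposure 15 min at 22 °C before imaging.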

Sequence	switch fluorescence ratio
GTAAGACTAA	0.997 ± 0.011
GTAAGTAAGA	1.03 ± 0.017
GTAAGTGAGC	1.034 ± 0.0026
GTAAGTTCTG	1 ± 0.011
GTAATAGGGC	0.983 ± 0.054
GTAATAGGTC	1.013 ± 0.0088
GTAATAGTAT	1.006 ± 0.0061
GTAATCATTT	0.9667 ± 0.0093
GTAATCGGCA	1.02 ± 0.022
GTAATCTCTG	1.01 ± 0.028
GTAATCTTTA	0.982 ± 0.029
GTAATGATGG	0.994 ± 0.036
GTAATGGGGT	0.966 ± 0.029
GTAATTTAGG	0.996 ± 0.042
GTAATTTTGG	0.983 ± 0.037
GTAATTTTTT	1.02 ± 0.031
GTACACTCAT	1.04 ± 0.031
GTACATATAA	1.03 ± 0.011
GTACCCTATG	1.07 ± 0.029
GTACCTGTCT	0.99 ± 0.017
GTACGAACTT	1.32 ± 0.061
GTACTGTGTG	1.001 ± 0.0037
GTACTTCATA	1.03 ± 0.013
GTAGAAATGT	0.981 ± 0.027
GTAGCAACGG	1.59 ± 0.1

Sequence	switch fluorescence ratio
GTAGCTGGGG	0.98 ± 0.011
GTAGGACATC	1.01 ± 0.023
GTAGGGAAAG	1.009 ± 0.0087
GTAGGGATTA	0.9779 ± 0.0064
GTAGGGGGTG	1.02 ± 0.065
GTAGGGGTTC	0.982 ± 0.042
GTAGGTAAGC	1.03 ± 0.057
GTAGGTAGGT	0.99 ± 0.024
GTAGGTTTGA	0.994 ± 0.012
GTAGTAAAAC	1.69 ± 0.087
GTAGTAAGAT	1.07 ± 0.064
GTAGTAGCTT	1.017 ± 0.003
GTAGTATTAG	1.032 ± 0.0043
GTAGTGCGGG	0.9536 ± 0.0014
GTAGTGGGGT	0.987 ± 0.016
GTAGTGTGGT	0.999 ± 0.012
GTAGTTTGCG	0.928 ± 0.12
GTAGTTTTAC	1.042 ± 0.0071
GTATAAAACT	0.9986 ± 0.0087
GTATAAATGC	0.988 ± 0.046
GTATAGGGGC	0.977 ± 0.025
GTATATAAGT	0.98 ± 0.013
GTATCAACGG	1.034 ± 0.0028
GTATGAAAAG	0.9736 ± 0.0061
GTATGAAGGG	0.9756 ± 0.0049

Sequence	switch fluorescence ratio
GTATGAGGTG	1.02 ± 0.044
GTATGCGAGG	1 ± 0.08
GTATGGCGGG	1.008 ± 0.0032
GTATGGGATG	0.993 ± 0.015
GTATGGGCGG	0.991 ± 0.035
GTATGGGGTT	0.9641 ± 0.0085
GTATGTGGGG	0.996 ± 0.038
GTATTAATAT	1.01 ± 0.04
GTATTAATGT	1.01 ± 0.011
GTATTAGCTG	0.974 ± 0.0089
GTATTAGTAA	1.006 ± 0.0038
GTATTAGTGT	1.006 ± 0.0073
GTATTATCTG	0.9495 ± 0.0038
GTATTGGGGG	1.01 ± 0.043
GTATTGGGTA	0.99 ± 0.028
GTATTTACTT	1.02 ± 0.012
GTATTTATGA	0.974 ± 0.0056
GTATTTGAGT	0.991 ± 0.0031
GTCAAATGGT	0.972 ± 0.021
GTCAATTTGA	0.978 ± 0.062
GTCACCAGAT	1.002 ± 0.0077
GTCACTATTG	1.02 ± 0.0022
GTCAGTATAA	1.03 ± 0.059
GTCAGTGGGG	1.02 ± 0.052
GTCAGTGGGT	0.9682 ± 0.0079

Sequence	switch fluorescence ratio
GTCATAGTTA	0.983 ± 0.017
GTCATGAGCG	1 ± 0.012
GTCATTTGTA	0.9813 ± 0.0074
GTCCAAAAAA	1.08 ± 0.067
GTCCGTGTTA	0.994 ± 0.037
GTCGAAGCCC	1.03 ± 0.022
GTCGCAAGTT	1.01 ± 0.018
GTCGCTAATG	0.996 ± 0.016
GTCGGATGCT	1.02 ± 0.047
GTCGGCAGGG	1.06 ± 0.014
GTCGGCGTAA	0.9982 ± 0.0045
GTCGGGAAGG	1.013 ± 0.0026
GTCGGGAGGA	0.998 ± 0.025
GTCGGTATTA	0.984 ± 0.034
GTCGTAATTG	1.02 ± 0.016
GTCGTAGCGA	1.24 ± 0.016
GTCGTAGTAC	1.1974 ± 0.00024
GTCGTATGAC	1.08 ± 0.042
GTCGTATTAG	0.995 ± 0.022
GTCGTCGGAG	1.03 ± 0.019
GTCGTCGTCG	0.972 ± 0.012
GTCGTCTAAG	0.973 ± 0.051
GTCTAAACTT	1.01 ± 0.013
GTCTAAGGGG	1.11 ± 0.25
GTCTCAAAGA	1.017 ± 0.0083

Sequence	switch fluorescence ratio
GTCTGGGGGA	1.03 ± 0.042
GTCTTGGCTC	1.02 ± 0.031
GTGAAAAACT	1.03 ± 0.033
GTGAAAACGT	1.04 ± 0.035
GTGAAAGATT	1.02 ± 0.041
GTGAAAGGAG	0.997 ± 0.039
GTGAAAGGGG	1.11 ± 0.17
GTGAAAGGGT	1.02 ± 0.015
GTGAAGGGGA	1.09 ± 0.11
GTGAAGGGTA	0.985 ± 0.0081
GTGAATCGGG	0.973 ± 0.032
GTGACATGGA	1 ± 0.014
GTGACCGGGA	1 ± 0.027
GTGACGAGGG	0.981 ± 0.013
GTGAGAGCGG	0.963 ± 0.033
GTGAGATCGG	0.991 ± 0.029
GTGAGATGGA	0.953 ± 0.03
GTGAGATGGG	0.984 ± 0.03
GTGAGATGTA	0.991 ± 0.045
GTGAGCCACG	0.9932 ± 0.0014
GTGAGGAGGG	0.959 ± 0.07
GTGAGGCCCC	1 ± 0.02
GTGAGGGTTG	0.975 ± 0.03
GTGAGGTTTT	0.985 ± 0.021
GTGAGTTGCT	1.002 ± 0.005

Sequence	switch fluorescence ratio
GTGATAATGG	1.037 ± 0.0077
GTGATACACG	1.004 ± 0.0033
GTGATAGATT	1 ± 0.013
GTGATAGGGG	0.994 ± 0.053
GTGATATAGC	0.9807 ± 0.0071
GTGATATCTG	0.98 ± 0.038
GTGATATGGG	1.02 ± 0.036
GTGATGAACG	1.01 ± 0.092
GTGATGGAAA	0.964 ± 0.016
GTGATGGGGT	1.01 ± 0.038
GTGATGTTGG	1.02 ± 0.029
GTGATTGCGG	1.02 ± 0.069
GTGATTGGCG	0.971 ± 0.046
GTGATTGGGG	0.97 ± 0.028
GTGATTGTTT	1.009 ± 0.0091
GTGCAAAATG	1.0339 ± 0.00075
GTGCGATTGG	1.033 ± 0.0092
GTGCGCAATT	2.02 ± 0.082
GTGCGGGCGC	0.944 ± 0.04
GTGCGTTTGG	0.971 ± 0.022
GTGCTAGTCT	0.979 ± 0.067
GTGCTTAGGA	0.957 ± 0.029
GTGCTTGGCC	1 ± 0.047
GTGCTTGTGT	1.01 ± 0.04
GTGCTTTGCG	0.9928 ± 0.0014

Sequence	switch fluorescence ratio
GTGCTTTTGG	0.9997 ± 0.008
GTGGAAAGGA	0.991 ± 0.024
GTGGAAAGGG	1.01 ± 0.041
GTGGACACAC	1.04 ± 0.035
GTGGACCAGT	0.972 ± 0.024
GTGGACGG	0.9733 ± 0.0022
GTGGAGAAAT	1.04 ± 0.047
GTGGAGACGG	0.988 ± 0.034
GTGGAGGGGG	0.9841 ± 0.0047
GTGGAGGGTA	1.01 ± 0.029
GTGGATTGGC	0.982 ± 0.035
GTGGATTGTG	0.971 ± 0.067
GTGGCAGGTG	2.53 ± 0.053
GTGGCATAGC	0.981 ± 0.023
GTGGCGGGGG	1.01 ± 0.026
GTGGCTAACT	1.04 ± 0.035
GTGGCTTAGG	0.9796 ± 0.0035
GTGGCTTTTT	1 ± 0.037
GTGGGACCTT	1.06 ± 0.069
GTGGGACTGT	1.015 ± 0.0021
GTGGGAGCTG	0.99 ± 0.0079
GTGGGAGG	1.02 ± 0.025
GTGGGAGGAC	1.078 ± 0.0018
GTGGGATAGG	0.985 ± 0.038
GTGGGATTGA	0.9898 ± 0.0043

Sequence	switch fluorescence ratio
GTGGGCATGG	0.977 ± 0.022
GTGGGCGGCG	1.02 ± 0.064
GTGGGGAATG	0.986 ± 0.024
GTGGGGAGCG	0.994 ± 0.029
GTGGGGAGTC	0.992 ± 0.015
GTGGGGAGTT	0.99 ± 0.023
GTGGGGCCTG	0.955 ± 0.013
GTGGGGCGTT	1 ± 0.035
GTGGGGGACA	0.993 ± 0.04
GTGGGGGGCG	1 ± 0.042
GTGGGGGTTC	0.985 ± 0.041
GTGGGGTCGA	1.01 ± 0.04
GTGGGGTTAT	1 ± 0.013
GTGGGTACCA	0.968 ± 0.017
GTGGGTATTA	1 ± 0.023
GTGGGTGATA	0.994 ± 0.036
GTGGGTGTGT	1.02 ± 0.045
GTGGTAAAGG	0.9739 ± 0.0091
GTGGTAAATG	1.01 ± 0.035
GTGGTAGCCG	1.0015 ± 0.00029
GTGGTCGATG	0.953 ± 0.043
GTGGTCGGGC	1 ± 0.022
GTGGTGAGGA	0.953 ± 0.038
GTGGTGATGT	1.02 ± 0.012
GTGGTGGCGG	1.02 ± 0.017
